This data set in a line: soluble on expression in E. coli; label from the status in PepcDB or PDB records.
As to “ETRECKEALAKSEMNVNMKCQLPNFTAETPIQNVILHEHHIFLGATNYIYVLNEEDLQKVAEYKTGPVLEHPDCFPCQDCSSKANLSGGVWKDNINMALVVDTYYDDQLISCGSVNRGTCQRHVFPHNHTADIQSEVHCIFSPQIEEPSQCPDCVVSALGAKVLSSVKDRFINFFVGNTINSSYFPDHPLHSISVRRLKETKDGFMFLTDQSYIDVLPEFRDSYPIKYVHAFESNNFIYFLTVQRETLDAQTFHTRIIRFCSINSGLHSYMEMPLECILTEKRKKRSTKKEVFNILQAAYVSKPGAQLARQIGASLNDDILFAVFAQSKPDSAEPMDRSAMCAFPIKYVNDFFNKIVNKNNVRCLQHFYGPNHEHCFNRTLLRNSSGCEARRDEYRTEFTTALQRVDLFMGQFSEVLLTSISTFIKGDLTIANLGTSEGRFMQVVVSRSGPSTPHVNFLLDSHPVSPEVIVEHTLNQNGYTLVITGKKITKIPLNGLGCRHFQSCSQCLSAPPFVQCGWCHDKCVRSEECLSGTWTQQICLPAIYKVFPNSAPLEGGTRLTICGWDFGFRRNNKFDLKKTRVLLGNESCTLTLSESTMNTLKCTVGPAMNKHFNMSIIISNGHGTTQYSTFSYVDPVITSISPKYGPMAGGTLLTLTGNYLNSGNSRHISIGGKTCTLKSVSNSILECYTPAQTISTEFAVKLKIDLANRETSIFSYREDLHHHHHH”, the “soluble on expression in E. coli” value was “soluble”.

“MGSDKIHHHHHHMIQITPFLDSKRKTPLYVQLYQYIKEGIESGQLKSDTFLPSIRELALHLRVSKNTVEGAYQQLIAEGYVESIPRVGLKILELEATFLCDKGGKQLQNVTMGEIQREHKSIEFDFVYGEIDTAHLPLKVWKRHVQEVLKGASEELLMYGDPFGDWHLRQELSHYLLQSRGVSCRPEQVVITAGTQHAVSLLCQLLSLHGSTVAFEDPGYNGVRSVFINQGCRIAPIPIEADGLSLSRLHESHANIVYVTPSHQLPCGMILPVHKRSLLLEWAYEHEGYIVEDDYDSEFRYQGQPIPALKALDQNEKVIYLGTFSKSFLPSIRVSYMVLPGELVPLYQQKLANYNQAASQLIQRALYTFIKDGDFQRHIRRMKKVYQSKHHTLLKSVKTYLGDRVTVIGEKSGLHVLLNVPGREDHELIEKAMACGVKVYSTKTFWYNPKNQCSSFIMLGFGKLSEEAIKKGIRRLQQAWF”: the “soluble on expression in E. coli” value is “not soluble”.

With “MSLNKQDGENTLQHEKSSSFGYWCSPSPEQLERLSLKQLAAVSNFVIGRRGYGCITFQHDVDLTAFTKSFREELFGKIVIFRSSKTVEVYPDEATKPMIGHGLNVPAIITLENVYPVDKKTKKPMKDTTKFAEFQVFDRKLRSMREMNYISYNPFGGTWTFKVNHFEGHHHHHH”, the “soluble on expression in E. coli” value was “soluble”.

As to KSCCSCCPAECEKCAKDCVCKGGEAAEAEAEKCSCCQ, the “soluble on expression in E. coli” value is on record as “soluble”.

For the sequence “PKEQSMKIVVIGGTGLIGSNVVNRLRRDGHETVAASPGTGVNTITGEGLAQALDGAQVVVDVANSPSFEDQAVMAFFETSGRTLLAAEAAAGVTHHLALSVVGTDRLADSGYFRAKVAQEALIKASKVPYTILRATQFFE”, the “soluble on expression in E. coli” value was “not soluble”.

Consider “GPVWRKHYITYRINNYTPDMNREDVDYAIRKAFQVWSNVTPLKFSKINTGMADILVVFARGAHGDDHAFDGKGGILAHAFGPGSGIGGDAHFDEDEFWTTHSGGTNLFLTAVHEIGHSLGLGHSSDPKAVMFPTYKYVDINTFRLSADDIRGIQSLYGDPKENQRLPNPDNSEPALCDPNLSFDAVTTVGNKIFFFKDRFFWLKVSERPKTSVNLISSLWPTLPSGIEAAYEIEARNQVFLFKDDKYWLISNLRPEPNYPKSIHSFGFPNFVKKIDAAVFNPRFYRTYFFVDNQYWRYDERRQMMDPGYPKLITKNFQGIGPKIDAVFYSKNKYYYFFQGSNQFEYDFLLQRITKTLKSNSWFGC”, for which the “soluble on expression in E. coli” value is recorded as “soluble”.

For the sequence “MRTQNDLDRRLRSFGGRDGQMTTLSVRRLPVENGISGWEAISKRSKPVRRLEGDVTADWLIIGAGFAGLSAARRLTQLHPGETIVVLDASEVGKGTSGRNSGFMIDVPHNLASSEYSSGAIDATRLEMEQNRSAIAFAAAAAEDYGMSRQTFDPAGKINAAATRRGMTLNQNFAASLKNAGEKHTLLDAAQMRALTGSDYYLGGLYTPGAVLIQPADYIREFAAGLSPKVDIFENSPVTALRRENRAWKATTPSGSVTAPKVILGVNGHVDDFGHFRGRLIHIFAYASMTAPFAARDYGSRVSGQDKWALLPADAMGATVRKITSDGQSRIAIRTRYTYETTLDLTKHQLSKMVRAHRRSLDDRFPGLGGIPFEYSWSGRICLSLNHVPAFGEIEEGLFSACCENGLGTVKSTLAGMMAAELATGTTSRHLEQYMDHPAPSRLPPEPFAWLGINSVIRLQELRAGREGLEHHHHHH”, the “soluble on expression in E. coli” value is “not soluble”.

“MAYDLWYWDGIPGRGEFVRLALEAGKIPYRDRAREPGEDMLADMRRRRDTAPFAPPYLVADGMTIAQTANILLFLGVEHGLAPPDRAGRLWVNQLQLTIADLTAEAHDVHHPVAAGLYYEDQQDVALRRAADFRETRMPKFMQYFEQALDRPGGWLTDMGRWSYADLSLYHVVEGLLHAFPRRMRTLMHRYPRLMTLHARVAELPELRGYLASDRRLPFGDGIFRHYPELDGA”: the “soluble on expression in E. coli” value is on record as “not soluble”.

For “MGSDKIHHHHHHAEYIHVIPADASAVASINLNSLADKAGLNDKQNEGMKQKMMEALKSGMNAAAFQQLEKIMKNPSQSGIDVKAPVFVFTSKTFISPTIVAKVSNIEDLRASLDLMAKEGICQPIAEEEGYSFTSLQKNNLLVFNENAAVLTEAYGTSQMDVAKQTISTLLKQTEENSIASNGSFRKMQDQKGDINFFASMDAVPKMYTQQISLGLSSQIDLSEVKAVGNLNFEKGKIALQIETYSDNAETDALLKKQAQAVKKLNTTFLQNFPESTLAFLNIGVNGAAFYDLLFNNEEFRRNVSLAKADEVKSLFASFDGDISIGLINVTLNSVPTFAAYADAKNGNALKALYDNKKQLKLGKNEDIIQLGENEYVYKSRATNVFFGIRNKQMYATNDELLYKSISKPVEKSIKDAGYVSDMKGKNVFFVINMDAILDLPVVKMMAGFGGEEYQTYYKLASKISYIEAFSDSEGKTETAILLKNKDDNALKQIVDFAKQFAGM”, the “soluble on expression in E. coli” value was “not soluble”.

On to “MAHHHHHHMPGPGLLADGWFREENGQWPGQAMSFKVEEVLHDTPTKFQHLSIFETDPKGPWGTVMTLDGCIQLTDFDEFVYHEMLSHTPLCAHPDPVDVLIIGGGDGGVMREVLRHGTVKRCVLVDIDGDVIEASKKYFPQISSGFSDPRADVRVGDGVAFVREAASESFDVVIIDTTDPDGPAAELFGEKFYRDVLRILKPRGICCNQGESVWLNRNLIEGMADFIKNKVGFASVKYAMIYTPTYPCGSIGSLICSKVAGVDVTQPVRPVESMPFAGELKYYDSDVHKAAFVLPRFARHLNQNYS”, for which the “soluble on expression in E. coli” value is recorded as “soluble”.

As for “MGSDKIHHHHHHMNYKTLVMKILIINQHSMNHGDEAAGKALIRTLYDRGFQDIAVSYNMNDFDASCLFKYKNVKQILPTKKKARGLDKITKLYLKCPCFITRFLTLMYLQRRREVKMIKEANIVISAPGGVNMGLYRDYGYVWRLKEVLYQGKSLVIYSPSIGPFTTNDFFRKIAKEILTRSTFVSLRDTQSYRYAEDLSVHYIQSIDTAYLETPRMDLPLELLNLLPKEYVVLVPNELYSWHIDYFHYDKRSIDRFYSSLIDKFTSNGLTVVLLPQLFYQPNMEDEDYFNRLKAENEKVIVIPTYYDSDIQQAIIKRAQFVVGARYHTIVFSINNETPFVCLSYEHKMKNMLEILSLDSYSIDISYAFENHKIVIDKIWKMYLDRVSVLNVLYDGKKKAKLLARKTFDFLIKKLRSM”, the “soluble on expression in E. coli” value is “not soluble”.

For the sequence “MPVRYSGFDYDGCVGVTNLINIVAQNPKLAQRIRETSNYYTKEVALIASNRQSDRDDKRNARSNGNGSCFIQIQKLCTDLGMEFDPFLLADAYNLVPAGTSLHEATNPANGAKIQNGWLHDKSKASLVYAHMQRASSLEAREQIDYFFYDDREDILEGLYQFFSANPELIPSNVTMHLVKYACSRENVHTMDNYKIPVQGKGFTNPDYVKTIKAFGDKAIENARDVYDIDGKEINAAGVRQAKYNCNFEFEANKLQPMKFVNNFNSPAELIKAHEQAIEKIKLGAFELYKAKINVITTLSNEQKVFLIRAKAQQWNLLCDEGQWNNPIFTLQAIMAEKSDRFFLPQYAFTAKMLIKNYQEARENSKDGSRFWEQINAFIKSMNALKDPMRNAQSIFEVFKKNSYSVKAVDGFVKKVVEVMNALMDKYPQRSTTEMVACMRILESNLQKMVNFFSLVDRLITIYRGCTTAGLNFNKILTVVREALEEMKMITDSGDNYSTTLIDLDKVITAANNRLESLTYPKEYSTKNFHSQESYKVVGAYLCMQSQLIQKLDTKASTALAI”, the “soluble on expression in E. coli” value is “not soluble”.

For “MATVSTNEFKGGLKIMLDNEPCVILENEYVKPGKGQAFNRVRIRKLLTGKVLEKTFKSGDTAEVADVVDIDLDYLYNDGEFYHFMNNSTFEQLAADAKAVGENAKWLVENNTCMLTLWNGNPIAVTPPNFVELEVTETDPGVKGDTQGTGGKPATLSTGAVVRVPLFVQIGEVIKVDTRSAEYVGRVK”, the “soluble on expression in E. coli” value is “soluble”.

As for “SQTLRIGYVSSLLYGLLPEIIYLFRQQNPEIHIELIECGTKDQINALKQGKIDLGFGRLKITDPAIRHIVLHKEQLKLAIHKHHHLNQFAATGVHLSQIIDEPMLLYPVSQKPNFATFIQSLFTELGLVPSKLTEIREIQLALGLVAAGEGVCIVPASAMDIGVKNLLYIPILDDDAYSPISLAVRNMDHSNYIPKILACVQEVFATHHIRPLIESILEHHHHHH”, the “soluble on expression in E. coli” value is on record as “soluble”.

As for “MSLTENKELRDILGGYHDNIKSKIMENKLDEAIYLVDSLSATFKLPSSGYDRSSCTPYNNEVSEKYGIEEYVNASLIPTPRTLFIAAQNPKDEKRDVFTDLLMKSNTKLVVSLIDDPRYFEEEWLQDRKVIKYMNKDLFIDEIYNIRGRNIRRLRYINWVDFSVITREEMEVFHSYFDSVRTEVVLVHCIAGVGRTGTFIMYDILKRMENITLDTFIDVFLNLRSKRAHLVTNKIQLEFLKNIFLESEGHHHHHH”, the “soluble on expression in E. coli” value is “soluble”.

For the sequence “MPIIYYDGNCVYCYNYAIWLIQHGLSTRYQFAKLQGDVAQNLLENYPEAQQYDSVILQEGDQLKYKSDAITTLITSLTNYKWLGILLRFVPNIIRDFGYQLFADNRNHMWKTHWHEPNDYEKSFFIDLEHHHHHH”, the “soluble on expression in E. coli” value is on record as “not soluble”.

“MGSDKIHHHHHHMTSAIDKNSQLEAQAWELLEESVIFYQGKPIGTVAAHDPESDALNYDQCFLRDFVPSALVFLMYGKAEIVRNFLVETLKLQSHEKQIDCFEPGAGLMPASFKVHFNGNEEFLVADFGEQAIARVPPIDSCMWWILLLRAYEKATGDLSLARQPDFQAGIKLILDLCLVHRFSMYPTMLVPDGAFMIDRRMGVYEHPLEIQVLFYASLRAASELLLPDGDGDSYLGKVNRRLGSLKYHIRNYYWLDLKRLGEIYRYKDNEFGKEIVNKFNINSESIPSWLTEWLPETGGYLAGNLGPGRIDFRFFALGNLMAILTSLASEKESQSIMNLFVQRWQDLIGYMPVKICFPALEGLEWRIVTGCDSKNRAWSYHNGGNWPVLLWLFASAAQKAGRTELAQAAIAIAERRLLKDKFPEYYDGNNGRLIGKEARINQTWSIAGLLTAKKFVENPDYLELISFAEGLEVPGCSL”: the “soluble on expression in E. coli” value was “not soluble”.

“MGHHHHHHEFMLKNDDFVIAKNQLGNIVPNSVGVIRAVNGKSAMVLFIGLNELKRVDFSELEAIDIYRTGKGYDKKICNICHILKNTDGFEINQTDAKGRKTTRPSCRECRKNIDGVKLSSTEKKKMDEIAPPKGSVFTCPICEKRSIVGVTANLVHDHNHDTGWGREWICDSCNTGLGRFKDNPKFLEKVIEYLKKYEK”: the “soluble on expression in E. coli” value is recorded as “soluble”.
